Assay results from the PETadex activity labels (doi:10.1093/ismejo/wraf068).

B1: unnamed (protein)
chain: CNDGSGGLEKTTELEPEDIYPLGDYYDPGKTGPYEVGVKTILLADNSRRTMLGHTKRILLTEVWYPILAPGDKINTVGDMIGQLPEWTPQILESFYGENWEDLLNIQTSAWRDAKTFLPDHPFPVIFFSHGLTALRFQNYTLCEHLASHGFLVIAPDHFDNNVFSNIPGHFTWFNPISTVASEFQRPRDIAFLVKHLQTRQSQTATFFGSYADPGRLGITGHSYGGMTSYAAGEQVAEIDAIAPLNPVILVPTTKFFTKPLLLLVGENDNLASSMFNSCEVAKRNYQTHKGNKAFLFLKNSGHYSATDACMLLPPGFINDDITGCGGAMLNPDIANEIVAAYQVAFFSITLKQDARYQDYLNKNNYPDNLDYEVSWK
B2: unnamed (protein)
chain: MEKPVVFENEGQQIVGMLHAPDGAEGLSPAVVMFHGFTGTKVEPHRLFVKTARRLAEEGFYVLRFDFRGSGDSEGEFREMTLEGEISDAKASLDFILSQPGVDRGRIGVIGLSMGGGVAACLAGRDERVRAVALWAAVSEDPPDLFQELIKTFEERPDKSVDYVDMGGNLVGKGFFEDLRNVKPLQEISGFEGPVLIVHGDNDQTVSVEHAYRFYERLKGKHPLTALHIIRGADHTFNSHEWEREVIEVTVDFMKRA
B3: unnamed (protein)
chain: MMKDIAITFREGTIAARIYLPPPVHRAGEPHPGIIILHGYLAQQIQFDDLPRRLARKGYVAITFDMPGHGRSSGKRGYIEKDLQIDAATTVLDHLISLPNVDPKRILVIGHSLGGAMGTYLCARDPRPTAFVAIAPAGSLKRIVPLPARMLFGIPYIIHRIKKRMTGNSLYFHSIVTEHIVWADKRKVKFELERELLQHRQPVDNYRTIFLIDPRIPARKVTIPTIMFLASRDRVVPNRISRELFDNIASDDKTLLTIENSGHSIMSDWKKEDFWKMLVPWLETHIPP
B4: unnamed (protein)
chain: VEIHDLHFYNRYNHTVAATIYLPENLNNSPAVIFCGGWLSSREMYSWLPEELAKRGYVVLAIDPSGNGDSYGKLPSFKIFGVRIFSVIDGPYNYINGVWSSDIYDAVTFLTTNYRVSKNVALIGHSMGGFAVTDEALKDGRIKTVIALSDADIYAIKNLKIPVMVITGDFDLIINDNLVAIPGYNAANPPKELIVIKFGTHNGFTNLIWPMPPWNHNVTLYYLSSWLDCFLREDRESCKTLEKPHKYLSTLSESKCNLDGKEKVIKRATGRRKTFTAFLLIFLFLAVLILYLRSKEG
B5: unnamed (protein)
chain: VGTISFDLVDKERLELYGDKIGEERKFKAQMWYPSDDVTEGERAPWIEDGVKVSRMIPKDIGLPGFLIDYSSLIKSNSYKGVPISEKEEKYPIVIISHGWTGYRNIHTDIGELLASHGYIAISIDHTYGSLATVFDNGEVIEVDYGALPNRNETEDFLDYANALVTTYAYDSRFVLDYLEELDDSELIDGRLDLDRIGTLGHSTGGGGVVKIAIEDDRIKAIFGFDPWVEPIEDELLKIGLDVPSLFIRSEQWEEGYNNGYLTTLINHSVIKPMTYQMNGVNHLDFTMLYMYRPILQAFGFAGELDSQVSSKIQLEYVLKFFETYLKDNETNLNDIEKIYDSVIPVNY
B6: unnamed (protein)
chain: QNSANVQNEISYDVFDYAQHPMGTIWGDPLPDAPALAARGEYMVGVQTLHLSNPNQTDVINTITSKSTVIYDRPLTVEVWYPATLKAGQVQVTVYCDFLGRYDKPGTLVPYTFLGRATRDAVPDTADGPYPLIIISHGYPGSRHLLFYLGENLASKGYVVVSIDHTDSTYKDVGHFASTLVNRSLDQKFVIREILKMPIWKDLCNPNEVGIIGYSMGGYGALRTLGAGLEDSNTIKGFLGEFASMLIAKPSDEGDPLVKAAVLFAPWGGSFGTGPTGLWDKASLAKITVPTLWIAGSQDDIAGYEGIVNLFNSSVNSRRYLLTYDNALHNVAPHPAPSIATEFGDYYRFADPVWDMWRIDSINEHFVTAFFDLYLKGDESAGSYLDMKVENSNEGVYSDQAESSTYWPGFQPRTALGLKFR
B7: unnamed (protein)
chain: VEPLADPAKPGPYPVGVTTMLLVDHSRTDNALAGGPRSLMTEIWYPATDDTRGLPKNRLLDFFNRNTDPGFTVLLKMAFGIDLIQADKDFRNDAVRDARVRDGRFPLVLFSHGNGGIRMQNAYWCEHMASHGYIVMAPDHTGNCAVTFIDGRIFPFNDSEEGREQSRQDRPKDISFLIDAMERMNKGADSRFMGKVDLDHIGVAGHSFGGFTSTWVADAEPRVDAIVPMAGAGAERVNYTCPVMVLVATEDDTLGPERMADLRRYYDESKGPRYLVEFLNAGHFSFTEMYQLKPDFGDGCGTGTRITNGEPLTYIAMDVAFPLIKGYTTAFFGKYLKGLDGYDAYLAANHNPNELVVKSSIPETPQ
B8: unnamed (protein)
chain: MSQYDPFLRGPFPAGVKTYEFEDTSRDRKLPIECWYPATSAYKGKDLDKETQDQFQLMEGFPKARQNAVRDAEIVDDSFPLIIFSHGFAGHRRQTTHFCTHLAGHGYIVASIDHIGSTLPEIMQMVMKVRKEGKLPDIEKFMEDVANDRPVDATFTIDTILAGELGPGIDPDRIGITGHSFGGWTTLVTTKSDTRIKAALPLAPGGGKSPLYGKDNPLTKMLTLDWERTVPTLYLTAEFDTLLPLDGMKDMFDRTPEPKGMVVLLNADHFHFCDGVEVVHDFFRQMGGFVGGMDPGGESEPAPMKKAKPSSELCPGKDAYTFIQGIGLAHMDAHLKGNSDAIELLKGDIAALLADRGVKVEVMQG

The proteins below were run on PET (assay: Proxy for plastic degradation [HPLC-UV] (mmol)). Conditions: pH 8; 30 °C.

Proxy for plastic degradation, 0:
B1
B2
B3
B4
B5
B6
B7
B8

Same assay, conditions: pH 8; 60 °C

Proxy for plastic degradation, 0:
B1
B2
B3
B4
B5
B6
B7
B8
